The record followed here is patent publication US20020151683A1 (MOGAM BIOTECHNOLOGY RESEARCH INSTITUTE, published 2002).

The target in the assay is T1, HLA-A2.1, a human MHC Class I molecule, at the surface of T2 cell (human).
T1 construct: detected with BB7.2 antibody against HLA-A2.1; also called MHC Class I molecules at the surface of T2 cell
The experiment in a line: T2 cell MHC stabilisation assay, peptide 1-100 ug/ml, flow cytometry with BB7.2 anti-HLA-A2.1 and FITC anti-mouse Ig. On the procedure: Seven different peptides including the peptides as disclosed in Table 1 above which were derived from HBV X protein were synthesized chemically and dissolved in phosphate buffered saline (hereinafter, referred to as “PBS”). In order to investigate whether the peptides can bind to MHC Class I molecules associated with induction of CTL, each peptide was added to T2 cell line in a concentration of 100, 64, 32, 16, 8, 4, 2 and 1 μg/ml, respectively, and reacted at 37° C. for 4 hours. And then, the cells were washed with PBS to remove unreacted peptides, added with BB7.2 antibody against HLA-A2.1, a human MHC Class I molecule, and reacted at 4° C. for 1 hour. The cells were washed with PBS again, added with fluorescein isothiocyanate (FITC)-conjugated anti-mouse immunoglobulin antibody, and reacted at 4° C. for 1 hour. Then, fluorescence of the cells was determined using fluorocytometer (FACScan, BECTON DICKINSON) and the results were shown in FIG. 1.
For orientation: A flow cytometer gives signals particle by particle.
As to HLSLRGLFV [X3 peptide derived from HBV X protein (positions 052-060)], the binding result is “binds”. With CLFKDWEEL [X6 peptide derived from HBV X protein (positions 115-123)], the binding result was “binds”.

Regarding EIRLKVFVL [X7 peptide derived from HBV X protein (positions 126-134)], the binding result is on record as “binds”.
